According to article PMC9122904, “Insights into the client protein release mechanism of the ATP-independent chaperone Spy” (Nature Communications, 2022):

Experiments:
Assay in all cases: BLI; Octet RED96; client biotinylated and loaded on streptavidin sensors; Spy or Spy variant in solution at 0.25, 0.5, 1, 1.5 and 2 μM; 40 mM HEPES, 150 mM NaCl, pH 7.5; Kd calculated as koff/kon
Settings in all cases: both partners purified
Spy_(1-124) = biological target: T1, Spy_(1-124) (UniProt P77754 24-147)
T1 construct: source: E. coli BL21 (DE3), purified (Ni-NTA, cation exchange, SEC); not shown: His6, N-terminal, cleaved; SUMO, N-terminal, cleaved
T1 sequence (looked up): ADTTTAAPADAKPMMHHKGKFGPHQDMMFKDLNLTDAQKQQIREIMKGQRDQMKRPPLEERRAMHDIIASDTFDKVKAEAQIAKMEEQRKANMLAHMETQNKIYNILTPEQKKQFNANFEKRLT
In short: (§1)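 Association was recorded with an Octet RED96 as streptavidin sensors carrying client proteins, biotinylated with EZ-link NHS-biotin at a 1:1 molar ratio, sat in 40 mM HEPES, 150 mM NaCl, pH 7.5 with 0.25 to 2 μM of the analyte protein (0.25, 0.5, 1, 1.5 and 2 μM). Dissociation followed after transfer to analyte-free buffer. Both wavelength-shift phases were fitted in SigmaPlot 12.0 to obtain koff and the observed association rate, whose dependence on analyte concentration yielded kon, with Kd defined as koff divided by kon.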

Spy_(24-130) = biological target: T2, Spy_(24-130) (UniProt P77754 47-153)
T2 construct: Spy chaperone, residues 24-130; source: E. coli BL21 (DE3), purified (Ni-NTA, cation exchange, SEC); not shown: His6, N-terminal, cleaved; SUMO, N-terminal, cleaved
T2 sequence (looked up): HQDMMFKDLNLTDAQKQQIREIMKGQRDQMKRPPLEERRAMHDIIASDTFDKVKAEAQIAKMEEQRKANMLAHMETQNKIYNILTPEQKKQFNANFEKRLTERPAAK
In short: as §1

Spy_(29-127) = biological target: T3, Spy_(29-127) (UniProt P77754 52-150)
T3 construct: Spy chaperone, residues 29-127; source: E. coli BL21 (DE3), purified (Ni-NTA, cation exchange, SEC); not shown: His6, N-terminal, cleaved; SUMO, N-terminal, cleaved
T3 sequence (looked up): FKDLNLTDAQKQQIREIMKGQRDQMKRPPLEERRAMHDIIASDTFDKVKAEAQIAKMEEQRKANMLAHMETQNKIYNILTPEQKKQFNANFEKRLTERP
In short: as §1

Spy_(27-127) = biological target: T4, Spy_(27-127) (UniProt P77754 50-150)
T4 construct: Spy chaperone, residues 27-127; source: E. coli BL21 (DE3), purified (Ni-NTA, cation exchange, SEC); not shown: His6, N-terminal, cleaved; SUMO, N-terminal, cleaved
T4 sequence (looked up): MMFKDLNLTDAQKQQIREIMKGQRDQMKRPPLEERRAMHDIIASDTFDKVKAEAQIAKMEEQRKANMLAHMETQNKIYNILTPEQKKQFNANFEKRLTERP
In short: as §1

Spy_(29-138) = biological target: T5, Spy_(29-138) (UniProt P77754 52-161)
T5 construct: source: E. coli BL21 (DE3), purified (Ni-NTA, cation exchange, SEC); not shown: His6, N-terminal, cleaved; SUMO, N-terminal, cleaved
T5 sequence (looked up): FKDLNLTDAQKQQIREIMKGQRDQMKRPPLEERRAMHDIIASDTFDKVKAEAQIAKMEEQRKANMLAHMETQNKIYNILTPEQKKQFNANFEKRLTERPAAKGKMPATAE
In short: as §1

Spy_(29-124) R61D R62D = biological target: T6, Spy_(29-124) R61D R62D (UniProt P77754 52-147, R61D | R62D)
T6 construct: source: E. coli BL21 (DE3), purified (Ni-NTA, cation exchange, SEC); not shown: His6, N-terminal, cleaved; SUMO, N-terminal, cleaved
T6 sequence (looked up): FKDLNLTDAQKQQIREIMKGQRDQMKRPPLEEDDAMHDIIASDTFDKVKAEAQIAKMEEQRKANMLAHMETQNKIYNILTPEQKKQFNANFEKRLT

Spy_(29-124) K54D R55D = biological target: T7, Spy_(29-124) K54D R55D (UniProt P77754 52-147, K54D | R55D)
T7 construct: source: E. coli BL21 (DE3), purified (Ni-NTA, cation exchange, SEC); not shown: His6, N-terminal, cleaved; SUMO, N-terminal, cleaved
T7 sequence (looked up): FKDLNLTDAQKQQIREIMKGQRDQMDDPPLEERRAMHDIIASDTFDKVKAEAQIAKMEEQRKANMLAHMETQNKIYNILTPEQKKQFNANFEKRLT

Spy_(29-124) K121D R122D = biological target: T8, Spy_(29-124) K121D R122D (UniProt P77754 52-147, K121D | R122D)
T8 construct: source: E. coli BL21 (DE3), purified (Ni-NTA, cation exchange, SEC); not shown: His6, N-terminal, cleaved; SUMO, N-terminal, cleaved
T8 sequence (looked up): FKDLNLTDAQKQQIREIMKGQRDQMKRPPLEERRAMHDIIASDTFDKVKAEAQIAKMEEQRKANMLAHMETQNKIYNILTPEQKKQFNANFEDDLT

Spy_(29-124) K75D = biological target: T9, Spy_(29-124) K75D (UniProt P77754 52-147, K75D)
T9 construct: source: E. coli BL21 (DE3), purified (Ni-NTA, cation exchange, SEC); not shown: His6, N-terminal, cleaved; SUMO, N-terminal, cleaved
T9 sequence (looked up): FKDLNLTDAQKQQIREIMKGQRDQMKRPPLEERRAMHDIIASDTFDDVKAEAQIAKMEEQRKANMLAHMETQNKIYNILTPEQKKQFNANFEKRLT

B1: Im7 H40W L53A I54A (natural protein)
chain: MELKNSISDYTEAEFVQLLKEIEKENVAATDDVLDVLLEWFVKITEHPDGTDAAYYPSDNRDDSPEGIVKEIKEWRAANGKPGFKQG
modifications: biotin (EZ-link NHS-biotin, 1:1 molar ratio of biotin to protein)
notes: Im7 (colicin E7 immunity protein) with H40W L53A I54A; Spy was made with an N-terminal His6-SUMO tag that was cleaved; also called Im7AAW; partially folded client; source: purified by a similar procedure to Spy
koff (Spy_(1-124)): 0.188 s⁻¹ | koff (Spy_(24-130)): 0.3 s⁻¹ | koff (Spy_(29-127)): 0.095 s⁻¹ | koff (Spy_(27-127)): 0.0933 s⁻¹ | koff (Spy_(29-138)): 0.0893 s⁻¹ | Kd (Spy_(29-124) R61D R62D): 3540 nM | Kd (Spy_(29-124) K54D R55D): 1900 nM | Kd (Spy_(29-124) K121D R122D): 1850 nM | Kd (Spy_(29-124) K75D): 456 nM
